Test results: publication PMC11542851 (PLOS Pathogens, 2024)

Target: T1, SARS-CoV-2 Wuhan-Hu-1 recombinant spike protein (trimer) (SARS-CoV-2 Wuhan-Hu-1, UniProt P0DTC2)
T1 construct: source: bought: Sino Biologics
Assay: ELISA
Settings: both partners purified

| Binder | binding result |
| --- | --- |
| C68.83 (antibody, V domains shown) VH: EVQLVESGGGVVQPGRSLRLSCAASGFIFSSYGMHWVRQAPGKGLEWVAVIWYDGSNKYYADSVKGRFTISRDNSKNTLYLQMNSLRAEDTAVYYCARDDPEVGCSGGSCYYYYDMDVWGQGTTVTVSS VL: SYELTQPPSVSVSPGQTARITCSGDALPKQHAHWYQQKPGQAPVLVIYKDIERPSGIPERFSGSSSGTTVTLTISGVQAEDEADYYCQSADSSVTYVVFGGGTKLTVL | binds |
| C68.327 (antibody, V domains shown) VH: EVQLLESGGGLVQPGGSLRLSCAASGFTFGSYAMSWVRQAPGKGLEWVSAISGSGGSTYYADSVKGRFTISRDNSKNTLYLQMNSLRAEDTAVYNCAKDLWDGFHWFDSWGQGTLVTVSS VL: DIQMTQSPSSVSASVGDRVTITCRASQGISSWLAWYQQKPGKAPNLLIYSASSLQSGVPSRFSGSGSGTDFTLTISSLQPEDFATYYCQQANSFPITFGQGTRLEIK | binds |
| C68.348 (antibody, V domains shown) VH: QVQLQESGPRLVKSSGTLSLTCAVSGGSISSSKWWSWVRQPPGKGLEWIGEVYHGGSTNYNPSLKSRVTISVDKAKNQFSLKLSSVTAADSAVYYCASLDSAAVFDYWGQGTLVTVSS VL: QSALTQPASVSGSPGQSITISCTGTSSDVGRFNYVSWYQQHPGKAPKLLIYDVSNRPSGVSNRFSGSKSGNTASLTISGLQAEDEADYYCNSYTSSSTLYVFGTGTKVTVL | binds |
| C68.88 (antibody, V domains shown) VH: QVQLQESGPGLVKPSETLSLTCSVSGGPISSSRYYWGWIRQSPGEGLEWIGTIYYSGSTYYNPSFKSRVTISVDTSKNQFSLKLSSVTAADTAVYYCATRCYDFWSGYYNREMLWFDCWGQGTLVTVSS VL: NFMLTQPHSVSESPGKTVTISCTRSSGSIASNYVQWYQQRPGSSPTTVIYENNQTPSGVPDRFSGSIDSSSNSASLTISGLKTEDEADYYCQSYDSSVVVFGGGTKLTVL | binds |
| C68.121 (antibody, V domains shown) VH: EVQLVESGGGLVKPGGSLRLSCAASGFTFSDYYMTWIRQAPGKGLEWVSKITNSNSYTHYADSVKGRFTISRDNAKNSLFLHMNSLRAEDTAVYYCARAIWIGYPDDYYMDVWGKGTTVTVSS VL: SYELTQPPSVSVSPGQTARITCSGDTLPNQYVYWYQQKPGQAPVLLIYKDTERPSGIPERVSGSTSGTTVTLTISGVQAEDEADYYCQSADSSGTSFGGGTKLTVL | binds |
| C68.175 (antibody, V domains shown) VH: EVQLLESGGGLVQPGGSLRLSCAASGFTFSSYAMSWVRQAPGKGLEWVSGISGSGGSTYYADSVKGRFTISRDNSKNTLHLQMNSLRAEDTAVYYCAKGSRWNPDYFDYWGQGTLVTVSS VL: not shown | binds |
| C68.183 (antibody, V domains shown) VH: EVQLLESGGGLVQPGGSLRLSCVASGFTFRNFAMSWVRQAPGKGLEWVSAISGSGDSTYYADSVKGRFTISRDNSKNTLYLQVNSLRVEDTAIYYCAKGSRGSTDYFDSWGQGTLVTVSS VL: not shown | binds |
| C68.185 (antibody, V domains shown) VH: QVQLVQSGAEVKKPGASVKVSCKTSGYAFTDHYVHWVRQAPGQGLEWMGVINPSGVGTSYAQMFQDRVTLTSDTSTSTVYMVLSSLRSEDTAVYYCVRDDYGVPARGWFDPWGQGTLVTVSS VL: EVVLTQSPATLSLSPGERATLSCRASQSISSYLAWYQQKPGQAPRLLIYDASNRATGVPARFSGSGSGADFTLTISSLEAEDFALYYCQHRSNWLYTFGQGTKLEIK | binds |
| C68.200 (antibody, V domains shown) VH: EVQLLESGGGLVQPGGSLRLSCTASGFTFSRYALTWVRQAPGKGLEWVSAISGSGGNTNYADSVKGRFTISRDNSKNTLYLQMNSLRAEDTAVYYCAKSPRYNNDYFDFWGQGTLVTVSS VL: DIQLTQSPSTLSASVGDRVTITCRASQSISSWLAWYQQKPGKAPKLLIYDASSLESGVPSRFSGSGSGTEFTLTISSLQPDDFATYYCQQYNTFITFGHGTRLEIK | binds |
| C68.203 (antibody, V domains shown) VH: EVQLLESGGGLVQPGGSLRLSCTASGFTFSRYALTWVRQAPGKGLECVSAFSGSGDSTYYADSVKGRFTISRDNSKNTLYLQMNSLRAEDTAVYYCAKSPRYNSDYFDFWGQGTLVTVSS VL: DIQLTQSPSTLSASVGDRVTITCRASQSISSWLAWYQQKPGKAPKLLIYDASSLESGVPSRFSGSGSGTEFTLTISSLQPDDFATYYCQQYNSFITFGQGTRLEIK | binds |
| C68.239 (antibody, V domains shown) VH: EVQLLESGGGLVQPGGSLRLSCAASGFTFSSYAMSWVRQAPGKGLEWVSAISGGGDNTYYADSVKGRFTISRDNSKNTLYLQMNSLRAEDTAVYFCAKNPITVVPAAWDRGYFDLWGRGTLVTVSS VL: SYELTQPPSVSVAPRKTARITCGGNNIGSYSVHWYQQRPGQAPVLVVHDDSDRPSGIPERFSGSNSGNTATLTISRVEAGDEADYYCQVWDSSSDHRGVFGGGTKLTVL | binds |
